# T1: BsKtrA (Bacillus subtilis, UniProt O32080)
# T1 construct: gene ktrA; tag-less BsKtrA (octamer) in the BsKtrAB complex; with BsKtrB
# T1 sequence (O32080 1-222): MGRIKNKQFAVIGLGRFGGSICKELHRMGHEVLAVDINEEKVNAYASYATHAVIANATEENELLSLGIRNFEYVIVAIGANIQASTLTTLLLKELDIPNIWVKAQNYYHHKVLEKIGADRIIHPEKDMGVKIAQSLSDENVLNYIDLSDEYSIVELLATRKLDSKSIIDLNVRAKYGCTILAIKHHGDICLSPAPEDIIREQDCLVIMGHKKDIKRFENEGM
# T1 sequence (O32081 1-445 partner): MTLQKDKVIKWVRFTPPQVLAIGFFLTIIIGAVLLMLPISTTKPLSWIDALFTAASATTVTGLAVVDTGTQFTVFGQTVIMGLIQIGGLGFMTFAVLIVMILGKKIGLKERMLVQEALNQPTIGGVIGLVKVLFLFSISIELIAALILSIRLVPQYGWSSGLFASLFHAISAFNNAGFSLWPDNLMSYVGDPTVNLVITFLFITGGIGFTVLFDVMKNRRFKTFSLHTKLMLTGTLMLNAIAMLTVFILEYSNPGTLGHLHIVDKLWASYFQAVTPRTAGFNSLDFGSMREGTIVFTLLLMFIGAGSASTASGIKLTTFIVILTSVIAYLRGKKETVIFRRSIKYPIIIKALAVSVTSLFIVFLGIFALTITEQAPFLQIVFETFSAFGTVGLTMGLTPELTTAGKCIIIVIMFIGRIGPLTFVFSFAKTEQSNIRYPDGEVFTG
# B1: KtrA from Bacillus subtilis (BsKtrA) (natural protein)
# chain: T1 sequence (O32080 1-222)
# notes: KtrA, regulatory RCK subunit of the K+ uptake system KtrAB, Bacillus subtilis; tag-less; Octameric ring (tetramer of homodimers); Used with ATP, with ADP or as apo protein; also called ATP-BsKtrA; ADP-BsKtrA; source: E. coli BL21(DE3), purified (anion exchange, N6-hexyl-ATP agarose, dialysis, SEC)
# B2: KtrB from Bacillus subtilis (BsKtrB) (natural protein)
# chain: T1 sequence (O32081 1-445 partner)
# notes: KtrB, transmembrane K+ permeation subunit of the K+ uptake system KtrAB, Bacillus subtilis; Membrane protein dimer in detergent (DDM, or 6-cyclohexyl-1-hexyl-beta-D-maltoside for cryo-EM); source: E. coli C43 (DE3), purified (DDM extraction, Ni-NTA, TEV cleavage, second Ni-NTA, SEC); not shown: His tag, N-terminal, cleaved
# Columns and labels:
# [1] = molecular target: T1, BsKtrA; experiment: cryo-EM structure of ADP-BsKtrAB at […] Å (Structure III); assay type: binding
# [2] = molecular target: B2; experiment: cryo-EM structure; ATP-BsKtrAB (Structures I, II, IIa, IIb); BsKtrA and BsKtrB mixed 2:1 with 1 mM ATP, complex taken from SEC; Cryo-EM Buffer (20 mM Tris-HCl pH 8.0, 70 mM NaCl, 30 mM KCl, 0.75 mM 6-cyclohexyl-1-hexyl-beta-D-maltoside) with 1 mM ATP and 2 mM MgCl2, or 1 mM ATP, 2 mM EDTA and 1 mM EGTA; KtrB2A8B2 assembly; conditions: both partners purified
# [3] = molecular target: the molecule itself; experiment: as above
Molecule,cryo-EM structure of ADP-BsKtrAB at 2.8 Å (Structure III) [1],binding result [2],stoichiometry N [3]
Nc1ncnc2c1ncn2[C@@H]1O[C@H](COP(=O)(O)OP(=O)(O)O)[C@@H](O)[C@H]1O [ADP],ATP and ADP share the same binding site located at the intra-dimer interface of KtrA RCK_N subdomains,,
B1,,binds,8
B2,,,2

# Reference: paper PMC11078986, “Structural basis and synergism of ATP and Na^+ activation in bacterial K^+ uptake system KtrAB” (Nature Communications, 2024)
